These results are taken from US12042530B2, “Target peptides for immunotherapy and diagnostics” (University of Virginia Patent Foundation, priority 2012, dated 2024).

In one test the target is T1, HLA-B*0702 (Homo sapiens, UniProt P01889).
T1 construct: endogenous in cells; host or cells: melanoma and/or leukemia cells
Put plainly: Phosphopeptides presented in association with class I molecules (HLA-B*0702) on cancer cells: melanoma and/or leukemia. Details: key: Melanoma (M); Leukemia (L); L/M: Melanoma (M) and/or Leukemia (L). Conditions: cancer type on which the HLA-B*0702 phosphopeptide is presented.

The target of test [1] is T2, HLA-B*0702 (HLA-B7) peptide complexes (Homo sapiens, UniProt P01889).
T2 construct: endogenous in cells; host or cells: JY B-lymphoblastoid line; primary ALL, CLL, HCL, AML samples; bone marrow; healthy B and T cells
Put plainly: HLA-B*0702 phosphopeptides associated with leukemia samples (isolation of HLA-associated peptides). As to conditions: for Copies/cell class, ALL1: acute lymphoblastic leukemia sample ALL1; for Copies/cell class, HCL1: hairy cell leukemia sample HCL1. The text has this:
To identify naturally processed tumor-associated phosphopeptides, HLA-A*0201 (HLA-A2) and HLA-B*0702 (HLA-B7) peptide complexes from four (4) chronic lymphocytic leukemia (CLL) tumor samples, a mantle cell lymphoma sample (MCL), one acute lymphoblastic leukemia (ALL), and an acute myeloid leukemia (AML) sample, in addition to healthy splenic T and B-cells and the cultured lymphoblastoid cell line JY were isolated. These efforts yielded 10 HLA-A2-restricted and 86 HLA-B7-restricted phosphopeptide antigens (see Tables 6 and 7).
All cell lines were grown at 37° C. with 5% CO2 in growth medium consisting of RPMI 1640 supplemented with 10% FCS and two mM L-glutamine. Blood or leukapheresis samples were taken from patients with high-burden leukemia in heparin. Tumor cells were recovered by layering the blood over density gradient (Ficoll) and collecting the tumor layer following centrifugation. The tumor was washed in tris-buffered saline (TBS). The purity of the tumor was assessed using flow cytometry and was >98% pure in all cases. For healthy T and B-cell populations, a normal spleen sample processed and tonsil sample was collected and lymphocytes released through mechanical disruption. Mononuclear cells were isolated using a density gradient and 10^9 T cells isolated using anti-CD19 or anti-CD3 microbeads (Miltenyi Biotec Inc., Auburn, California, United States of America) with purity >98% were obtained. Bone marrow sample was obtained from an elective orthopedic procedure and red cell-depleted using hypotonic lysis. This sample was not processed further.
Class I MHC molecules were immunoaffinity purified from the JY cell line or from primary tumor samples, and their associated peptides were extracted as previously described in Zarling et al., 2006. Approximately 1.2-14×10^9 cells were lysed in a solution containing 20 mM Tris-HCl (pH 8.0), 150 mM NaCl, 1% CHAPS, one mM PMSF, five μg/mL aprotinin, 10 μg/mL leupeptin, 10 μg/mL pepstatin A, 1 μg/ml calyculin A, and phosphatase inhibitor (cocktails I and II; Sigma-Aldrich). The mixture was subjected to centrifugation and the resulting supernatant was passed over protein A sepharose pre-loaded with the HLA-A2-specific antibody BB7.2 or HLA-B7-specific antibody MEL Peptides were eluted from the purified class I MHC molecules with 10% acetic acid.

Non-standard residues stand in square brackets, D forms with d. No end group written: not given here. pT = C[C@@H](OP(=O)(O)O)[C@H](N)C(=O)O; pS = N[C@@H](COP(=O)(O)O)C(=O)O

Regarding “340 (RPRPV[pS]PSSL; listed as Homo sapiens) [compound 340]”, the L/M result in the test with HLA-B*0702 was “L”.
On to “349 (RPV[pT]PVSDL; listed as Homo sapiens) [compound 349]”, for which, in test [1], the “Copies/cell class, CLL2” value is reported as 2 (2 indicates 1-5 copies/cell); the “Copies/cell class, JY” value is 4 (4 indicates >25 copies per cell); the “Copies/cell class, ALL1” value is 4 (4 indicates >25 copies per cell); the “Copies/cell class, HCL1” value is given as 1 (1 indicates <1 copy/cell). Also, in test [1] (healthy B cells), the “Copies/cell class, B Cell” value was 2 (2 indicates 1-5 copies/cell). For the same substance, the “Copies/cell class, T Cell” value in test [1] (healthy T cells) is on record as 2 (2 indicates 1-5 copies/cell). The L/M entry with HLA-B*0702 is on record as “L”.
“348 (RPV[pS]PGKDI; listed as Homo sapiens) [compound 348]”: in test [1], the “Copies/cell class, ALL1” value is listed as 1 (1 indicates <1 copy/cell). For the same substance, in the test with HLA-B*0702, the L/M entry is on record as “L”.
As for “342 (RPSRS[pS]PGL; listed as Homo sapiens) [compound 342]”, the “Copies/cell class, AML1” value in test [1] is listed as 2 (2 indicates 1-5 copies/cell). In addition, the L/M result in the test with HLA-B*0702 was “L”.
As to “387 (TPR[pS]PPLGL; listed as Homo sapiens) [compound 387]”, in test [1], the “Copies/cell class, AML1” value was 3 (3 indicates 6-25 copies per cell); the “Copies/cell class, CLL2” value was 3 (3 indicates 6-25 copies per cell); the “Copies/cell class, JY” value is on record as 4 (4 indicates >25 copies per cell); the “Copies/cell class, HCL1” value is 3 (3 indicates 6-25 copies per cell). The “Copies/cell class, CLL4” value in test [1] (CLL4) is given as 2 (2 indicates 1-5 copies/cell). Moreover, in the test with HLA-B*0702, the L/M result is given as “L”.
Turning to “380 (SPRTPV[pS]PVKF; listed as Homo sapiens) [compound 380]”, in the test with HLA-B*0702, the L/M entry was “M”.
Take “273 (FRR[pS]PTKSSLDY; listed as Homo sapiens) [compound 273]”: in test [1], the “Copies/cell class, AML1” value is 4 (4 indicates >25 copies per cell). In the test with HLA-B*0702, the L/M entry is given as “L”.
With “355 (RR[pS][pS]FLQVF; listed as Homo sapiens) [compound 355]”, in the test with HLA-B*0702, the L/M entry is given as “M”.
Consider “279 (HPR[pS]PTPTL; listed as Homo sapiens) [compound 279]”, for which, in the test with HLA-B*0702, the L/M result is given as “M”.
The same measure, in the same setting: under “280 (HPRSP[pT]PTL; listed as Homo sapiens) [compound 280]” stands “M”; under “335 (RPR[pS]PPPRAP; listed as Homo sapiens) [compound 335]”, “M”.
On to “299 (LPK[pS]PPYTAF; listed as Homo sapiens) [compound 299]”, for which the L/M entry with HLA-B*0702 is “M”.
For the substance “364 (RTF[pS]PTYGL; listed as Homo sapiens) [compound 364]”, the L/M result in the test with HLA-B*0702 is recorded as “M”.
Same read-out and setting: under “354 (RRP[pS]YTLGM; listed as Homo sapiens) [compound 354]” stands “M”; under “286 (KPP[pS]PSPIEM; listed as Homo sapiens) [compound 286]”, “L”.
On to “365 (RTR[pS]PSPTL; listed as Homo sapiens) [compound 365]”, for which the L/M result with HLA-B*0702 is “M”.
Still for that read-out and setting: with “390 (YPS[pS]PRKL; listed as Homo sapiens) [compound 390]” the entry was “M”.
Same read-out and setting: with “271 (FPH[pS]LLSVI; listed as Homo sapiens) [compound 271]” the entry was “M”.
On the same count and under the same terms, under “341 (RPSGRRE[pS]L; listed as Homo sapiens) [compound 341]” stands “M”.
Take “369 (SPFKRQL[pS]L; listed as Homo sapiens) [compound 369]”: the L/M result with HLA-B*0702 is reported as “M”.
On to “353 (RRL[pS]GPLHTL; listed as Homo sapiens) [compound 353]”, for which the L/M entry with HLA-B*0702 is recorded as “M”.
For “268 (APR[pS]PPPSRP; listed as Homo sapiens) [compound 268]”, the L/M entry with HLA-B*0702 is “M”.
Same read-out and setting: under “384 (SPVVHQ[pS]L; listed as Homo sapiens) [compound 384]” stands “M”.
Same read-out and setting: with “311 (RPA[pT]PTSQF; listed as Homo sapiens) [compound 311]” the entry was “M”; with “345 (RPS[pT]PKSDSEL; listed as Homo sapiens) [compound 345]”, “L”; with “266 (APRKG[pS]FSALM; listed as Homo sapiens) [compound 266]”, “M”.
Still for that read-out and setting: under “292 (KPR[pS]PPRAL; listed as Homo sapiens) [compound 292]” stands “L/M”; under “332 (RPRSL[pS]SPTVTL; listed as Homo sapiens) [compound 332]”, “M”.
As for “281 (KAR[pS]PGRAL; listed as Homo sapiens) [compound 281]”, the L/M result in the test with HLA-B*0702 is listed as “M”.
The same measure, in the same setting: with “372 (SPK[pS]PTAAL; listed as Homo sapiens) [compound 372]” the entry was “M”; with “316 (RPI[pS]PGLSY; listed as Homo sapiens) [compound 316]”, “L”; with “298 (LPIFSRL[pS]I; listed as Homo sapiens) [compound 298]”, “L”.
Same read-out and setting: with “375 (SPRR[pS]RSI[pS]L; listed as Homo sapiens) [compound 375]” the entry was “L/M”.
Consider “301 (MPRQP[pS]ATRL; listed as Homo sapiens) [compound 301]”, for which, in the test with HLA-B*0702, the L/M entry was “M”.
Still for that read-out and setting: with “294 (KPR[pS]PPRALVL; listed as Homo sapiens) [compound 294]” the entry was “M”.
Still for that read-out and setting: with “275 (GAQPGRH[pS]V; listed as Homo sapiens) [compound 275]” the entry was “M”; with “329 (RPRR[pS]STQL; listed as Homo sapiens) [compound 329]”, “M”; with “300 (LPRGS[pS]PSVL; listed as Homo sapiens) [compound 300]”, “M”.
In the case of “357 (RR[pS]SQSWSL; listed as Homo sapiens) [compound 357]”, in the test with HLA-B*0702, the L/M entry is “M”.
Take “290 (KPRPPPL[pS]P; listed as Homo sapiens) [compound 290]”: the L/M entry in the test with HLA-B*0702 is reported as “M”.
Take “326 (RPRG[pS]QSLL; listed as Homo sapiens) [compound 326]”: the L/M entry with HLA-B*0702 is listed as “M”.
The same measure, in the same setting: under “276 (GPRSA[pS]LL[pS]L; listed as Homo sapiens) [compound 276]” stands “L”; under “373 (SPRER[pS]PAL; listed as Homo sapiens) [compound 373]”, “M”.
Still for that read-out and setting: with “362 (RSR[pS]PRPAL; listed as Homo sapiens) [compound 362]” the entry was “M”.
For the substance “293 (KPR[pS]PPRALV; listed as Homo sapiens) [compound 293]”, in the test with HLA-B*0702, the L/M result is given as “M”.
The same measure, in the same setting: with “381 (SPR[pT]PV[pS]PVKF; listed as Homo sapiens) [compound 381]” the entry was “M”.
